In this assay the test system is transplanted liver cancer H22. The assay is described as follows: Example 13: different administration orders of interferon and gemcitabine, transplanted liver cancer H22 in mice. It is filed as in vivo, BALB/c mice. As to conditions: PEG-mIFN-α4 only, 1 microgram per mouse s.c. once a week. How it is done: PEG-mIFN-α4 was administered by subcutaneous injection on the back of the neck, with a dose of 1 microgram per mouse. The administration began on the day after grouping. In the PEG-mIFN-α4 only group, PEG-mIFN-α4 was administered once a week. In the PEG-mIFN-α4 combined with gemcitabine (administered at the same time) group, PEG-mIFN-α4 and gemcitabine were administered on the same day, once a week. In the PEG-mIFN-α4 combined with gemcitabine (PEG-mIFN-α4 was administered 72 hours after gemcitabine) group, gemcitabine was given 3 days before PEG-mIFN-α4, once a week. PEG-mIFN-α4 combined with gemcitabine (gemcitabine was given 72 hours after PEG-mIFN-α4) group, PEG-mIFN-α4 was given first, and gemcitabine was given 3 days after, once a week. In the normal saline control group, an equal volume of normal saline was given. Gemcitabine was injected intraperitoneally at a dose of 60 mg/kg.
SAS 9.4 software was used to compare the differences in tumor incidence between groups, and the statistical tests were all two-sided tests.
The tumor incidence of each group was calculated based on the tumor volume greater than or equal to 62.5 mm^, which is determined as positive for tumor occurrence. […] Mice determined to be negative for tumor development were confirmed by dissection, and no solid tumor was found in the axilla. […]

B1: PEG-mIFN-α4: deglycosylated recombinant mouse interferon α4 modified with 40 kD Y-type polyethylene glycol succinimide ester (YPEG-NHS); SEQ ID NO: 6 (protein)
chain: CDLPHTYNLGNKRALTVLEEMRRLPPLSCLKDRKDFGFPLEKVDNQQIQKAQAILVLRDLTQQILNLFTSKDLSATWNATLLDSFCNDLHQQLNDLKACVMQEPPLTQEDSLLAVRTYFHRITVYLRKKKHSLCAWEVIRAEVWRALSSSTNLLARLSEEKE
modifications: 40 kD Y-type PEG; deglycosylated; peginterferon murine alpha 4
Turning to B1, the “Median survival period (time after tumor inoculation, day)” value (by day 151) stood at 38.0 days. Further, the tumor incidence (day 151 after tumor inoculation, tumor volume ≥62.5 positive) was 100.0%.

For the origin of these results see patent US20250268984A1, “INTERFERON-BASED CANCER TREATMENT METHOD, AND PHARMACEUTICAL COMBINATION” (XIAMEN AMOYTOP BIOTECH CO., LTD., priority 2021, published 2025).
